Data as given in article PMC549571.
Like-named read-outs stand apart in the source and are kept apart here.

B1: non-telomeric mixed (MXT/MXB) (dsDNA)
DNA 1: GTGGATCCGTACGATGGTTTTAGGTGAACACGAATTCGA
DNA 2: TCGAATTCGTGTTCACCTAAAACCATCGTACGGATCCAC
B2: CTRL (dsDNA)
DNA 1: GTGGATCCGTACTTAGGGTTAGGGTTAACACGAATTCGA
DNA 2: TCGAATTCGTGTTAACCCTAACCCTAAGTACGGATCCAC
B3: 8oxoG1-1 (dsDNA)
DNA 1: B2 DNA 1
DNA 2: B2 DNA 2
modifications: 8-oxoG at positions 17, 23 of strand 1
B4: 8oxoG1 (dsDNA)
DNA 1: B2 DNA 1
DNA 2: B2 DNA 2
modifications: 8-oxoG at position 17 of strand 1
B5: 8oxoG3 (dsDNA)
DNA 1: B2 DNA 1
DNA 2: B2 DNA 2
modifications: 8-oxoG at positions 16, 17, 18 of strand 1
B6: 8oxoG2 (dsDNA)
DNA 1: B2 DNA 1
DNA 2: B2 DNA 2
modifications: 8-oxoG at positions 17, 18 of strand 1

Tests used:
Assay in all cases: EMSA
TRF1 [1] = target: T1, TRF1 (Homo sapiens, UniProt P54274 1-439)
T1 sequence (P54274 whole entry): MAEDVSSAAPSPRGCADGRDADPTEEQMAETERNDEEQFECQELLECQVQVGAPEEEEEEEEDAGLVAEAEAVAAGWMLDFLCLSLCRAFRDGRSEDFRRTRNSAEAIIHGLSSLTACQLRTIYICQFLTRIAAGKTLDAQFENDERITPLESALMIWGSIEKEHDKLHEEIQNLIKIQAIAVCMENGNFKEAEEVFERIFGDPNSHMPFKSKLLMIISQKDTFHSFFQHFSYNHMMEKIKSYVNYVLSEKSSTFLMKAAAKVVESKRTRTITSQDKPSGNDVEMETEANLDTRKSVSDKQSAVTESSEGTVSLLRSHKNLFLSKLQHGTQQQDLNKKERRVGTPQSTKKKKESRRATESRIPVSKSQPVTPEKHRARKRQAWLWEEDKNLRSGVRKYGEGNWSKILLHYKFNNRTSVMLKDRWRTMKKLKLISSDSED

TRF2ΔN [2] = target: T2, TRF2ΔN (Homo sapiens, UniProt Q15554 87-542)
T2 sequence (Q15554 87-542, stated change not applied): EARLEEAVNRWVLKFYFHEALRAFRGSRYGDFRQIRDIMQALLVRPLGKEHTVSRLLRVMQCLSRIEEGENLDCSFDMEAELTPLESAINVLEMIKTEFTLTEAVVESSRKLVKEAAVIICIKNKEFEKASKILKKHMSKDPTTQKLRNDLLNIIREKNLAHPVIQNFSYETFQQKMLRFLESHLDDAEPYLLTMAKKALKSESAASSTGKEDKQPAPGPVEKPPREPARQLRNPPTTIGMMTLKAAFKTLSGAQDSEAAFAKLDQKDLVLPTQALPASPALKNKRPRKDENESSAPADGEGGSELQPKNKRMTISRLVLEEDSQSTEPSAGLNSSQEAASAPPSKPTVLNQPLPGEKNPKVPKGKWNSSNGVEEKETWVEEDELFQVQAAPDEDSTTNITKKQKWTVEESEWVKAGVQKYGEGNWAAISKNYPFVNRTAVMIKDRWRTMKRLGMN

TRF2ΔN [3] = target: T2, TRF2ΔN; remark: listed apart in the source
TRF1 [4] = target: T1, TRF1; remark: listed apart in the source
TRF1 [5] = target: T1, TRF1; remark: listed apart in the source

Binder	binding signal (TRF2ΔN [3])	binding signal (TRF1 [4])	other results
B1	–	–	binding result (TRF1 [1]): no binding; binding result (TRF2ΔN [2]): no binding
B2	55 % bound at 100 nM TRF2ΔN	61 ± 6 % bound at 25 nM TRF1	–
B3	–	–	binding signal (TRF1 [5]): 18 fold decrease in % bound vs control at 25 nM TRF1
B4	11 % bound at 100 nM TRF2ΔN	31 ± 6 % bound at 25 nM TRF1	–
B5	–	21 fold decrease in % bound vs control at 25 nM TRF1	–
B6	17 % bound at 100 nM TRF2ΔN	29 ± 2 % bound at 25 nM TRF1	–
